{"source": "patent US11278600B2", "about": "“Human alpha-galactosidase variants” (Codexis, Inc., priority 2014, dated 2022)", "molecules": {"B1": {"name": "361 (protein)", "chain": "LDNGLARTPTMGWLHWERFMCNLDCQEEPDSCISEKLFMEMAERMVREGWKDAGYEYLCIDDCWMAPQRDSEGRLQADPQRFPHGIRQLANYVHSKGLKLGIYADVGNKTCAGFPGSFGYYDIDAQTFADWGVDLLKFDGCYCDSLENLADGYKHMSLALNRTGRSIVYSCEWPLYMWPFQKPNYTEIRQYCNHWRNFADIDDSWKSIKSILDWTSRNQERIVDVAGPGGWNDPDMLVIGNFGLSWDQQVTQMALWAIMAAPLFMSNDLRHISPQAKALLQDKDVIAINQDPLGKQGYQLRKGDNFEVWERPLSGDAWAVAIINRQEIGGPRSYTIPVASLGKGVACNPACFITQLLPVKRQLGFYNWTSRLKSHINPTGTVLLQLENTMQMSLKDLL", "modifications": "Synthetic Polypeptide sequence of Variant No. 361 of mature Human GLA"}, "B2": {"name": "408 (protein)", "chain": "B1 chain with R47S, S166R", "modifications": "Synthetic Polypeptide sequence of Variant No. 408 of mature Human GLA"}, "B3": {"name": "401 (protein)", "chain": "B1 chain with R47S, T163S", "modifications": "Synthetic Polypeptide sequence of Variant No. 401 of mature Human GLA"}, "B4": {"name": "362 (protein)", "chain": "B1 chain with R44C, R47S", "modifications": "Synthetic Polypeptide sequence of Variant No. 362 of mature Human GLA"}, "B5": {"name": "398 (protein)", "chain": "B1 chain with R47S, A159S", "modifications": "Synthetic Polypeptide sequence of Variant No. 398 of mature Human GLA"}, "B6": {"name": "407 (protein)", "chain": "B1 chain with R47S, L158H", "modifications": "Synthetic Polypeptide sequence of Variant No. 407 of mature Human GLA"}, "B7": {"name": "404 (protein)", "chain": "B1 chain with R47S, S166F", "modifications": "Synthetic Polypeptide sequence of Variant No. 404 of mature Human GLA"}, "B8": {"name": "405 (protein)", "chain": "B1 chain with R47S, L158E", "modifications": "Synthetic Polypeptide sequence of Variant No. 405 of mature Human GLA"}, "B9": {"name": "409 (protein)", "chain": "B1 chain with R47S, R165H", "modifications": "Synthetic Polypeptide sequence of Variant No. 409 of mature Human GLA"}, "B10": {"name": "402 (protein)", "chain": "B1 chain with R47S, S166P, K206A", "modifications": "Synthetic Polypeptide sequence of Variant No. 402"}, "B11": {"name": "399 (protein)", "chain": "B1 chain with R47S, R165K", "modifications": "Synthetic Polypeptide sequence of Variant No. 399 of mature Human GLA"}, "B12": {"name": "406 (protein)", "chain": "B1 chain with R47S, R162K", "modifications": "Synthetic Polypeptide sequence of Variant No. 406 of mature Human GLA"}, "B13": {"name": "400 (protein)", "chain": "B1 chain with R47S, L158C", "modifications": "Synthetic Polypeptide sequence of Variant No. 400 of mature Human GLA"}, "B14": {"name": "411 (protein)", "chain": "B1 chain with R47S, S166A", "modifications": "Synthetic Polypeptide sequence of Variant No. 411 of mature Human GLA"}, "B15": {"name": "410 (protein)", "chain": "B1 chain with R47S, R162H", "modifications": "Synthetic Polypeptide sequence of Variant No. 410 of mature Human GLA"}, "B16": {"name": "403 (protein)", "chain": "B1 chain with R47S, S166G", "modifications": "Synthetic Polypeptide sequence of Variant No. 403 of mature Human GLA"}}, "note": "Where a chain is given by its changes, count along the chain named."}
{"assay": "HTP-analysis of supernatants pretreated with acid (MUGal hydrolysis)", "assay_type": "biochemical", "settings": "activity of the variant/activity of Rd4BB (SEQ ID NO: 15); challenge at pH 3.7", "in_short": "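GLA variants were secreted from INVSc1 yeast grown 66-84 h at 30° C. in SD-Ura with 2% glucose; supernatants were mixed with McIlvaine buffer pH 3.3-4.3 and held at 37° C. for 1-3 h. Residual activity on MUGal at pH 4.8 was then measured by fluorescence.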"}
{"molecule": "B1", "Relative Activity of GLA Variants After Challenge at pH 3.7": "+ (0.5 to 1.5 relative activity over Rd4BB (SEQ ID NO: 15))"}
{"molecule": "B2", "Relative Activity of GLA Variants After Challenge at pH 3.7": "+ (0.5 to 1.5 relative activity over Rd4BB (SEQ ID NO: 15))"}
{"molecule": "B3", "Relative Activity of GLA Variants After Challenge at pH 3.7": "+ (0.5 to 1.5 relative activity over Rd4BB (SEQ ID NO: 15))"}
{"molecule": "B4", "Relative Activity of GLA Variants After Challenge at pH 3.7": "+ (0.5 to 1.5 relative activity over Rd4BB (SEQ ID NO: 15))"}
{"molecule": "B5", "Relative Activity of GLA Variants After Challenge at pH 3.7": "++ (>1.5 to 2.5 relative activity over Rd4BB (SEQ ID NO: 15))"}
{"molecule": "B6", "Relative Activity of GLA Variants After Challenge at pH 3.7": "+ (0.5 to 1.5 relative activity over Rd4BB (SEQ ID NO: 15))"}
{"molecule": "B7", "Relative Activity of GLA Variants After Challenge at pH 3.7": "+ (0.5 to 1.5 relative activity over Rd4BB (SEQ ID NO: 15))"}
{"molecule": "B8", "Relative Activity of GLA Variants After Challenge at pH 3.7": "++ (>1.5 to 2.5 relative activity over Rd4BB (SEQ ID NO: 15))"}
{"molecule": "B9", "Relative Activity of GLA Variants After Challenge at pH 3.7": "+ (0.5 to 1.5 relative activity over Rd4BB (SEQ ID NO: 15))"}
{"molecule": "B10", "Relative Activity of GLA Variants After Challenge at pH 3.7": "++ (>1.5 to 2.5 relative activity over Rd4BB (SEQ ID NO: 15))"}
{"molecule": "B11", "Relative Activity of GLA Variants After Challenge at pH 3.7": "+ (0.5 to 1.5 relative activity over Rd4BB (SEQ ID NO: 15))"}
{"molecule": "B12", "Relative Activity of GLA Variants After Challenge at pH 3.7": "+ (0.5 to 1.5 relative activity over Rd4BB (SEQ ID NO: 15))"}
{"molecule": "B13", "Relative Activity of GLA Variants After Challenge at pH 3.7": "+ (0.5 to 1.5 relative activity over Rd4BB (SEQ ID NO: 15))"}
{"molecule": "B14", "Relative Activity of GLA Variants After Challenge at pH 3.7": "+ (0.5 to 1.5 relative activity over Rd4BB (SEQ ID NO: 15))"}
{"molecule": "B15", "Relative Activity of GLA Variants After Challenge at pH 3.7": "+ (0.5 to 1.5 relative activity over Rd4BB (SEQ ID NO: 15))"}
{"molecule": "B16", "Relative Activity of GLA Variants After Challenge at pH 3.7": "+ (0.5 to 1.5 relative activity over Rd4BB (SEQ ID NO: 15))"}
{"assay": "HTP-analysis of yeast culture supernatants, no challenge (MUGal hydrolysis)", "assay_type": "biochemical", "settings": "activity of the variant/activity of Rd4BB (SEQ ID NO: 15)", "in_short": "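Activity read as 4-methylumbelliferyl α-D-galactopyranoside hydrolysis: fluorescence (355/448 nm) after sodium carbonate stop, following 30-180 min at 37° C with 2 mM MUGal stock at pH 4.6–4.8. Enzyme source is unchallenged culture supernatant of INVSc1 yeast expressing GLA variants, grown 66-84 h at 30° C.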"}
{"molecule": "B1", "Relative Activity of GLA Variants After No Challenge (NC)": "+ (0.5 to 1.5 relative activity over Rd4BB (SEQ ID NO: 15))"}
{"molecule": "B2", "Relative Activity of GLA Variants After No Challenge (NC)": "+ (0.5 to 1.5 relative activity over Rd4BB (SEQ ID NO: 15))"}
{"molecule": "B3", "Relative Activity of GLA Variants After No Challenge (NC)": "+ (0.5 to 1.5 relative activity over Rd4BB (SEQ ID NO: 15))"}
{"molecule": "B4", "Relative Activity of GLA Variants After No Challenge (NC)": "+ (0.5 to 1.5 relative activity over Rd4BB (SEQ ID NO: 15))"}
{"molecule": "B5", "Relative Activity of GLA Variants After No Challenge (NC)": "+ (0.5 to 1.5 relative activity over Rd4BB (SEQ ID NO: 15))"}
{"molecule": "B6", "Relative Activity of GLA Variants After No Challenge (NC)": "+ (0.5 to 1.5 relative activity over Rd4BB (SEQ ID NO: 15))"}
{"molecule": "B7", "Relative Activity of GLA Variants After No Challenge (NC)": "+ (0.5 to 1.5 relative activity over Rd4BB (SEQ ID NO: 15))"}
{"molecule": "B8", "Relative Activity of GLA Variants After No Challenge (NC)": "+ (0.5 to 1.5 relative activity over Rd4BB (SEQ ID NO: 15))"}
{"molecule": "B9", "Relative Activity of GLA Variants After No Challenge (NC)": "+ (0.5 to 1.5 relative activity over Rd4BB (SEQ ID NO: 15))"}
{"molecule": "B10", "Relative Activity of GLA Variants After No Challenge (NC)": "+ (0.5 to 1.5 relative activity over Rd4BB (SEQ ID NO: 15))"}
{"molecule": "B11", "Relative Activity of GLA Variants After No Challenge (NC)": "+ (0.5 to 1.5 relative activity over Rd4BB (SEQ ID NO: 15))"}
{"molecule": "B12", "Relative Activity of GLA Variants After No Challenge (NC)": "+ (0.5 to 1.5 relative activity over Rd4BB (SEQ ID NO: 15))"}
{"molecule": "B13", "Relative Activity of GLA Variants After No Challenge (NC)": "+ (0.5 to 1.5 relative activity over Rd4BB (SEQ ID NO: 15))"}
{"molecule": "B14", "Relative Activity of GLA Variants After No Challenge (NC)": "+ (0.5 to 1.5 relative activity over Rd4BB (SEQ ID NO: 15))"}
{"molecule": "B15", "Relative Activity of GLA Variants After No Challenge (NC)": "+ (0.5 to 1.5 relative activity over Rd4BB (SEQ ID NO: 15))"}
{"molecule": "B16", "Relative Activity of GLA Variants After No Challenge (NC)": "+ (0.5 to 1.5 relative activity over Rd4BB (SEQ ID NO: 15))"}
{"assay": "HTP-analysis of supernatants pretreated with base (MUGal hydrolysis)", "assay_type": "biochemical", "settings": "activity of the variant/activity of Rd4BB (SEQ ID NO: 15); challenge at pH 9.65", "in_short": "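GLA variants were secreted by transformed INVSc1 yeast grown 66-84 h at 30° C. Supernatants were exposed to neutral-to-basic buffers (pH 7.0-9.7) at 37° C for 1-18 h, then assayed with MUGal in acidic citrate/McIlvaine buffer, with fluorescence read after quenching.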"}
{"molecule": "B1", "Relative Activity of GLA Variants After Challenge at pH 9.65": "+ (0.5 to 1.5 relative activity over Rd4BB (SEQ ID NO: 15))"}
{"molecule": "B2", "Relative Activity of GLA Variants After Challenge at pH 9.65": "+ (0.5 to 1.5 relative activity over Rd4BB (SEQ ID NO: 15))"}
{"molecule": "B3", "Relative Activity of GLA Variants After Challenge at pH 9.65": "− (<0.5 relative activity over Rd4BB (SEQ ID NO: 15))"}
{"molecule": "B4", "Relative Activity of GLA Variants After Challenge at pH 9.65": "+ (0.5 to 1.5 relative activity over Rd4BB (SEQ ID NO: 15))"}
{"molecule": "B5", "Relative Activity of GLA Variants After Challenge at pH 9.65": "− (<0.5 relative activity over Rd4BB (SEQ ID NO: 15))"}
{"molecule": "B6", "Relative Activity of GLA Variants After Challenge at pH 9.65": "− (<0.5 relative activity over Rd4BB (SEQ ID NO: 15))"}
{"molecule": "B7", "Relative Activity of GLA Variants After Challenge at pH 9.65": "− (<0.5 relative activity over Rd4BB (SEQ ID NO: 15))"}
{"molecule": "B8", "Relative Activity of GLA Variants After Challenge at pH 9.65": "+ (0.5 to 1.5 relative activity over Rd4BB (SEQ ID NO: 15))"}
{"molecule": "B9", "Relative Activity of GLA Variants After Challenge at pH 9.65": "− (<0.5 relative activity over Rd4BB (SEQ ID NO: 15))"}
{"molecule": "B10", "Relative Activity of GLA Variants After Challenge at pH 9.65": "+ (0.5 to 1.5 relative activity over Rd4BB (SEQ ID NO: 15))"}
{"molecule": "B11", "Relative Activity of GLA Variants After Challenge at pH 9.65": "+ (0.5 to 1.5 relative activity over Rd4BB (SEQ ID NO: 15))"}
{"molecule": "B12", "Relative Activity of GLA Variants After Challenge at pH 9.65": "+ (0.5 to 1.5 relative activity over Rd4BB (SEQ ID NO: 15))"}
{"molecule": "B13", "Relative Activity of GLA Variants After Challenge at pH 9.65": "− (<0.5 relative activity over Rd4BB (SEQ ID NO: 15))"}
{"molecule": "B14", "Relative Activity of GLA Variants After Challenge at pH 9.65": "+ (0.5 to 1.5 relative activity over Rd4BB (SEQ ID NO: 15))"}
{"molecule": "B15", "Relative Activity of GLA Variants After Challenge at pH 9.65": "− (<0.5 relative activity over Rd4BB (SEQ ID NO: 15))"}
{"molecule": "B16", "Relative Activity of GLA Variants After Challenge at pH 9.65": "+ (0.5 to 1.5 relative activity over Rd4BB (SEQ ID NO: 15))"}
